# Experimental data published in patent US20030087317.
# Experiments:
# [1] = system: myelin basic protein
# [2] = system: histone
# Sequence of human NIM1 kinase-GST (recombinant Nim1-GST, expressed in Sf21 insect cells from pVL1392/GST-NIM1) (chain, as listed by the source): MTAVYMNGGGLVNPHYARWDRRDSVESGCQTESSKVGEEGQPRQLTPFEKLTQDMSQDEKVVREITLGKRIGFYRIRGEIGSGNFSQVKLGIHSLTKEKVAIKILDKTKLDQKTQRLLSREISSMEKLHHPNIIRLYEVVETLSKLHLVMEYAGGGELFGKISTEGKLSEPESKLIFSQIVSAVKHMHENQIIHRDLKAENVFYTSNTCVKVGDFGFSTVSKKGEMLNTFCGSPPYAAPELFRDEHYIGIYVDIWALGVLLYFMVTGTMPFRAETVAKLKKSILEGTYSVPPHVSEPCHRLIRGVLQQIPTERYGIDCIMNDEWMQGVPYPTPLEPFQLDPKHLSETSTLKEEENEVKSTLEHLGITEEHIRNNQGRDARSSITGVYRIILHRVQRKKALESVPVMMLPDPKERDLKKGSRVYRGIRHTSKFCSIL
substance,measurement,setting,value
"human NIM1 kinase-GST (recombinant Nim1-GST, expressed in Sf21 insect cells from pVL1392/GST-NIM1)","phosphorylation of substrate in in vitro kinase assay ([gamma-32P]-ATP, SDS-PAGE, autoradiography)",[1],"phosphorylated its substrates MBP, lane 2, and HIST. 1, lane 4"
same,"phosphorylation of substrate in in vitro kinase assay ([gamma-32P]-ATP, SDS-PAGE, autoradiography)",[2],"phosphorylated its substrates MBP, lane 2, and HIST. 1, lane 4"
